Results taken from FireProtDB (doi:10.1006/jmbi.2000.4053).
Several values for one entry are separate records, joined by “and”; a condition that tells them apart may be missing. Equal entries are not always repeated.

Details: Homo sapiens, pH 5, 25 °C
[1] = GdnHCl, CD, Sodium acetate 50 mM, structure 1TTG
[2] = GdnHCl, Fluorescence, Sodium acetate 50mM, transition: 2, structure 1FNF
[3] = GdnHCl, Fluorescence, Sodium acetate 50mM, transition: 2, structure 1TEN
[4] = Urea, CD, Sodium acetate 50 mM, structure 1TEN

Chain of Fibronectin V1547A, P02751 (P02751 whole entry V1547A): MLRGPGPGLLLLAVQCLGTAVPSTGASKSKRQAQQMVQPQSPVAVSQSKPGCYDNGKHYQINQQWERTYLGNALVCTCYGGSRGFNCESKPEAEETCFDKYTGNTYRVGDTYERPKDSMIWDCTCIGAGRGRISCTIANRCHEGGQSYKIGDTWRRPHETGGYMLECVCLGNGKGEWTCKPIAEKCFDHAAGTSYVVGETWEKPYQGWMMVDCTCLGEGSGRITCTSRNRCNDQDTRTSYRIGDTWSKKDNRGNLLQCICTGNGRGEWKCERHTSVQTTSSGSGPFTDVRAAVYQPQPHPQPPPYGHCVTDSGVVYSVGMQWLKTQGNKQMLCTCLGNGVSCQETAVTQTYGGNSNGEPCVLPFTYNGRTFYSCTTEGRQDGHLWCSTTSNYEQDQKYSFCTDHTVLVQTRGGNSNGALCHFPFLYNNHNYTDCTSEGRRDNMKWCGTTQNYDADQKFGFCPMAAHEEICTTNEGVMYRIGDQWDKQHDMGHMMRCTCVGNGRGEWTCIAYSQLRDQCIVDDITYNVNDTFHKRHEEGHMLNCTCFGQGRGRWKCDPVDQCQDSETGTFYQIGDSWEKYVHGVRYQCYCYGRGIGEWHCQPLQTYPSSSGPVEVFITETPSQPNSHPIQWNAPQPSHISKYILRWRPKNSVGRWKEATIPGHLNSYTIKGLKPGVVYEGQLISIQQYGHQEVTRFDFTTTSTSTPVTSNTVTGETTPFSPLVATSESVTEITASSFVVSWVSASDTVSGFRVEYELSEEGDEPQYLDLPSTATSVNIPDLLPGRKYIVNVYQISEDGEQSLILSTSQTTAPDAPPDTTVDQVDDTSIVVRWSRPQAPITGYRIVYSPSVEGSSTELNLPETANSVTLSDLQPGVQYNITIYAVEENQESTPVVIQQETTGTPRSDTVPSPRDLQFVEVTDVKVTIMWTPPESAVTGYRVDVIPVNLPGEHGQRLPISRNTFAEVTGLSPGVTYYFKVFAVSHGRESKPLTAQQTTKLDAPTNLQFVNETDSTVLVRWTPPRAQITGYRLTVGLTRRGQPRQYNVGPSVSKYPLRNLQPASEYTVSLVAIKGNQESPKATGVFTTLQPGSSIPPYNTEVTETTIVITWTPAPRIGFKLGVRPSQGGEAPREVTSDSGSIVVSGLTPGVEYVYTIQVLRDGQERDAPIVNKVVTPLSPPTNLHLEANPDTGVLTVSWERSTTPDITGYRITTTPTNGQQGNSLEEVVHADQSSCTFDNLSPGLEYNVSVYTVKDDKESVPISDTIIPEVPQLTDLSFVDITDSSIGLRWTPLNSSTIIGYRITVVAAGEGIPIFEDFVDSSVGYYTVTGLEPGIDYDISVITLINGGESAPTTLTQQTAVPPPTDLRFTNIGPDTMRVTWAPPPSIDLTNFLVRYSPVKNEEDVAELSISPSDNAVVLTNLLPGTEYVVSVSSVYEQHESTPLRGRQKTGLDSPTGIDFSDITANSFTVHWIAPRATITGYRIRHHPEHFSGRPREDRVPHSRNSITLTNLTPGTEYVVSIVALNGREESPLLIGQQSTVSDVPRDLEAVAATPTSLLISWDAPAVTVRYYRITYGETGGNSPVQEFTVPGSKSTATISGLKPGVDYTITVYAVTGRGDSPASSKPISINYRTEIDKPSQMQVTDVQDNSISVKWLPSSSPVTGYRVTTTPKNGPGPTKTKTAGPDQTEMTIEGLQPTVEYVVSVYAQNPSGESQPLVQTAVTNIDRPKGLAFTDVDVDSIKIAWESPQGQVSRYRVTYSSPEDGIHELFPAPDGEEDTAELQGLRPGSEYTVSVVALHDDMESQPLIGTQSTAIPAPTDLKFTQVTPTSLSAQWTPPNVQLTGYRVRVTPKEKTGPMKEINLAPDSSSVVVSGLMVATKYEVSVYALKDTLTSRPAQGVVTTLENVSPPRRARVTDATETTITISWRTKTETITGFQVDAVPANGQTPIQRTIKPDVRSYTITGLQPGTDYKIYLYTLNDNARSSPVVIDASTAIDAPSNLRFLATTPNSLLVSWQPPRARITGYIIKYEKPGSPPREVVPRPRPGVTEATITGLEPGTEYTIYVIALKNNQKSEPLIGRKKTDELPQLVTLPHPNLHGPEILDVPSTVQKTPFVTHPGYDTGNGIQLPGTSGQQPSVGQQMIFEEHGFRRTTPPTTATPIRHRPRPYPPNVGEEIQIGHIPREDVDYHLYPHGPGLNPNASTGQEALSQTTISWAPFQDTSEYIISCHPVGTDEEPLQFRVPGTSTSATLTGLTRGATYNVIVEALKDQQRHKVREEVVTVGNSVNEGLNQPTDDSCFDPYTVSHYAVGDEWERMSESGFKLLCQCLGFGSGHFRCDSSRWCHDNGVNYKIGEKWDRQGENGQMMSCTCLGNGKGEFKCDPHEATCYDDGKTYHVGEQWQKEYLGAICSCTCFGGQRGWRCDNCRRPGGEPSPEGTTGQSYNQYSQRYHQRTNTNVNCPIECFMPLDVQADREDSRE
Chain of Fibronectin V1566A, P02751 (P02751 whole entry V1566A): as the sequence (P02751 whole entry V1547A) above, with A1547V, V1566A counted along it

| Substance | ddG of mutation (higher = less stable) [1] | denaturant m value [1] | denaturant midpoint (higher = more stable) [1] | ddG of mutation (higher = less stable) [3] | ddG of mutation (higher = less stable) [4] | denaturant m value [4] | denaturant midpoint (higher = more stable) [4] | also measured |
| --- | --- | --- | --- | --- | --- | --- | --- | --- |
| Fibronectin A1550G, P02751 | 0.93 kcal/mol | 6.1 kcal/mol/M | 1.33 M |  |  |  |  |  |
| Fibronectin A1594G, P02751 | 2.81 kcal/mol | 7.1 kcal/mol/M | 1.04 M |  |  |  |  |  |
| Fibronectin A1611G, P02751 | 1.38 kcal/mol | 6.2 kcal/mol/M | 1.26 M |  |  |  |  |  |
| Fibronectin F1585A, P02751 | 2.16 kcal/mol | 6.8 kcal/mol/M | 1.14 M |  |  |  |  |  |
| Fibronectin I1571A, P02751 | 5.02 kcal/mol | 6.9 kcal/mol/M | 0.7 M |  |  |  |  |  |
| Fibronectin I1571V, P02751 | 0.41 kcal/mol | 6.9 kcal/mol/M | 1.41 M |  |  |  |  |  |
| Fibronectin I1596A, P02751 | 3.66 kcal/mol | 7.2 kcal/mol/M | 0.91 M |  |  |  |  |  |
| Fibronectin I1596V, P02751 | 1.12 kcal/mol | 7.1 kcal/mol/M | 1.3 M |  |  |  |  |  |
| Fibronectin I1607A, P02751 | 3.72 kcal/mol | 5.6 kcal/mol/M | 0.9 M |  |  |  |  |  |
| Fibronectin I1625A, P02751 | 0.35 kcal/mol | 6.03 kcal/mol/M | 1.42 M |  |  |  |  |  |
| Fibronectin I1625V, P02751 | 0.35 kcal/mol | 6.5 kcal/mol/M | 1.42 M |  |  |  |  |  |
| Fibronectin I1627A, P02751 | 0.35 kcal/mol | 6 kcal/mol/M | 1.42 M |  |  |  |  | ddG of mutation (higher = less stable) [2]: 3.66 kcal/mol; denaturant m value [2]: 7.2 kcal/mol/M; denaturant midpoint (higher = more stable) [2]: 1.04 M; unfolding free energy [2]: 5.74 kcal/mol |
| Fibronectin I1627V, P02751 | 0.28 kcal/mol | 6.3 kcal/mol/M | 1.43 M |  |  |  |  | ddG of mutation (higher = less stable) [2]: 1.12 kcal/mol; denaturant m value [2]: 7.1 kcal/mol/M; denaturant midpoint (higher = more stable) [2]: 0.91 M; unfolding free energy [2]: 8.28 kcal/mol |
| Fibronectin L1545A, P02751 | 1.64 kcal/mol | 6.2 kcal/mol/M | 1.22 M |  |  |  |  |  |
| Fibronectin L1555A, P02751 | 0.87 kcal/mol | 6.3 kcal/mol/M | 1.34 M |  |  |  |  |  |
| Fibronectin L1599A, P02751 | 2.94 kcal/mol | 6.6 kcal/mol/M | 1.02 M |  |  |  |  |  |
| Fibronectin P1542A, P02751 | -0.11 kcal/mol | 6.4 kcal/mol/M | 1.49 M |  |  |  |  |  |
| Fibronectin P1562A, P02751 | 0.48 kcal/mol | 6.5 kcal/mol/M | 1.4 M |  |  |  |  |  |
| Fibronectin P1601A, P02751 | 0.41 kcal/mol | 6.6 kcal/mol/M | 1.41 M |  |  |  |  |  |
| Fibronectin S1622A, P02751 | -0.11 kcal/mol | 6.5 kcal/mol/M | 1.49 M |  |  |  |  |  |
| Fibronectin V1547A, P02751 | 1.38 kcal/mol | 6.8 kcal/mol/M | 1.26 M |  |  |  |  |  |
| Fibronectin V1566A, P02751 | 1.45 kcal/mol | 6.6 kcal/mol/M | 1.25 M |  |  |  |  |  |
| Fibronectin V1587A, P02751 | 2.42 kcal/mol | 5.7 kcal/mol/M | 1.1 M |  |  |  |  |  |
| Fibronectin V1603A, P02751 | 0.67 kcal/mol | 6.12 kcal/mol/M | 1.37 M |  |  |  |  |  |
| Fibronectin Y1569A, P02751 | 4.37 kcal/mol and 3.96 kcal/mol | 6.8 kcal/mol/M | 0.8 M |  |  |  |  |  |
| Fibronectin Y1569F, P02751 | 0.41 kcal/mol | 6.3 kcal/mol/M | 1.41 M |  |  |  |  |  |
| Fibronectin Y1569L, P02751 | 2.81 kcal/mol and 2.4 kcal/mol | 6.6 kcal/mol/M | 1.04 M |  |  |  |  |  |

| Substance | ddG of mutation (higher = less stable) [1] | denaturant m value [1] | denaturant midpoint (higher = more stable) [1] | ddG of mutation (higher = less stable) [3] | ddG of mutation (higher = less stable) [4] | denaturant m value [4] | denaturant midpoint (higher = more stable) [4] | also measured |
| --- | --- | --- | --- | --- | --- | --- | --- | --- |
| Fibronectin Y1573A, P02751 | 2.29 kcal/mol | 7.9 kcal/mol/M | 1.12 M |  |  |  |  |  |
| Fibronectin Y1605F, P02751 | 2.03 kcal/mol | 6.2 kcal/mol/M | 1.16 M |  |  |  |  |  |
| Fibronectin Y1629A, P02751 | 1.19 kcal/mol | 6.6 kcal/mol/M | 1.29 M |  |  |  |  |  |
| Fibronectin Y1629F, P02751 | -0.11 kcal/mol | 6.5 kcal/mol/M | 1.49 M |  |  |  |  |  |
| Tenascin, P24821 A819G |  |  |  | 2.8 kcal/mol | 2.8 kcal/mol | 1.3 kcal/mol/M | 3.03 M | denaturant m value [3]: 2.31 kcal/mol/M; denaturant midpoint (higher = more stable) [3]: 1.3 M |
| Tenascin, P24821 E887A |  |  |  | -1.61 kcal/mol | -1.61 kcal/mol | 1.2 kcal/mol/M | 6.64 M | denaturant m value [3]: 5.04 kcal/mol/M; denaturant midpoint (higher = more stable) [3]: 1.3 M |
| Tenascin, P24821 E887G |  |  |  | 0.34 kcal/mol | 0.34 kcal/mol | 1.3 kcal/mol/M | 5.04 M |  |
| Tenascin, P24821 F889A |  |  |  | 5.43 kcal/mol | 5.43 kcal/mol |  | 0.9 M |  |
| Tenascin, P24821 I809A |  |  |  | 2.86 kcal/mol | 2.86 kcal/mol | 1.3 kcal/mol/M | 2.98 M | denaturant m value [3]: 5.17 kcal/mol/M; denaturant midpoint (higher = more stable) [3]: 1.3 M |
| Tenascin, P24821 I809V |  |  |  | 0.18 kcal/mol | 0.18 kcal/mol | 1.3 kcal/mol/M | 5.17 M | denaturant m value [3]: 4.21 kcal/mol/M; denaturant midpoint (higher = more stable) [3]: 1.2 M |
| Tenascin, P24821 I821A |  |  |  | 3.67 kcal/mol | 3.67 kcal/mol | 1.3 kcal/mol/M | 2.31 M | denaturant m value [3]: 5.13 kcal/mol/M; denaturant midpoint (higher = more stable) [3]: 1.2 M |
| Tenascin, P24821 I821V |  |  |  | 0.23 kcal/mol | 0.23 kcal/mol | 1.2 kcal/mol/M | 5.13 M | denaturant m value [3]: 3.9 kcal/mol/M; denaturant midpoint (higher = more stable) [3]: 1 M |
| Tenascin, P24821 I830A |  |  |  | 1.38 kcal/mol | 1.38 kcal/mol | 1.1 kcal/mol/M | 4.19 M | denaturant m value [3]: 5.06 kcal/mol/M; denaturant midpoint (higher = more stable) [3]: 1.2 M |
| Tenascin, P24821 I830V |  |  |  | 0.32 kcal/mol | 0.32 kcal/mol | 1.2 kcal/mol/M | 5.06 M | denaturant m value [3]: 2.63 kcal/mol/M; denaturant midpoint (higher = more stable) [3]: 1.2 M |
| Tenascin, P24821 I833A |  |  |  | 3.28 kcal/mol | 3.28 kcal/mol | 1.2 kcal/mol/M | 2.63 M | denaturant m value [3]: 4.91 kcal/mol/M; denaturant midpoint (higher = more stable) [3]: 1.1 M |
| Tenascin, P24821 I833V |  |  |  | 0.5 kcal/mol | 0.5 kcal/mol | 1.1 kcal/mol/M | 4.91 M | denaturant m value [3]: 1.8 kcal/mol/M; denaturant midpoint (higher = more stable) [3]: 1.4 M |
| Tenascin, P24821 I849A |  |  |  | 2.19 kcal/mol | 2.19 kcal/mol | 1.1 kcal/mol/M | 3.52 M | denaturant m value [3]: 2.87 kcal/mol/M; denaturant midpoint (higher = more stable) [3]: 1.1 M |
| Tenascin, P24821 I860A |  |  |  |  | 2.06 kcal/mol | 1.3 kcal/mol/M | 3.63 M |  |
| Tenascin, P24821 I860V |  |  |  | 0.83 kcal/mol | 0.83 kcal/mol | 1.2 kcal/mol/M | 4.64 M | denaturant m value [3]: 1.86 kcal/mol/M; denaturant midpoint (higher = more stable) [3]: 1.5 M |
| Tenascin, P24821 L835A |  |  |  |  | 4.29 kcal/mol | 1.4 kcal/mol/M | 1.8 M |  |
| Tenascin, P24821 L851A |  |  |  | 2.99 kcal/mol | 2.99 kcal/mol | 1.3 kcal/mol/M | 2.87 M | denaturant m value [3]: 1.93 kcal/mol/M; denaturant midpoint (higher = more stable) [3]: 1.3 M |
| Tenascin, P24821 L863A |  |  |  | 4.22 kcal/mol | 4.22 kcal/mol | 1.5 kcal/mol/M | 1.86 M | denaturant m value [3]: 4.55 kcal/mol/M; denaturant midpoint (higher = more stable) [3]: 1.2 M |
| Tenascin, P24821 L873A |  |  |  |  | 3.06 kcal/mol | 1.4 kcal/mol/M | 2.81 M |  |
| Tenascin, P24821 P806A |  |  |  | 2.74 kcal/mol | 2.74 kcal/mol | 1.1 kcal/mol/M | 3.07 M | denaturant m value [3]: 2.98 kcal/mol/M; denaturant midpoint (higher = more stable) [3]: 1.3 M |
| Tenascin, P24821 P826A |  |  |  |  | 1.73 kcal/mol | 1 kcal/mol/M | 3.9 M |  |
| Tenascin, P24821 P865A |  |  |  | 0.93 kcal/mol | 0.93 kcal/mol | 1.2 kcal/mol/M | 4.55 M | denaturant m value [3]: 4.32 kcal/mol/M; denaturant midpoint (higher = more stable) [3]: 1.2 M |
| Tenascin, P24821 P884A |  |  |  |  | 0.11 kcal/mol | 1.1 kcal/mol/M | 5.23 M |  |
